# Measured values as given in PMC5880795, “Cloning and expression of a novel α-1,3-arabinofuranosidase from Penicillium oxalicum sp. 68” (AMB Express, 2018).
# Tested on: T1, O=[N+]([O-])c1ccc(O[C@@H]2O[C@@H](CO)[C@H](O)[C@H]2O)cc1
# T1 construct: signal peptide (predicted residues 1-30) removed; pPIC9K SnaBI/EcoRI, secreted from Pichia pastoris GS115; no tag mentioned
# Test: purified protein
# Type: biochemical, Penicillium oxalicum
# Details: 20 mM Na-acetate pH 4.5, 37 °C (standard assay; kinetic conditions not restated)
# PoAbf62A (Penicillium oxalicum 114-2), sequence (chain, as listed by the source): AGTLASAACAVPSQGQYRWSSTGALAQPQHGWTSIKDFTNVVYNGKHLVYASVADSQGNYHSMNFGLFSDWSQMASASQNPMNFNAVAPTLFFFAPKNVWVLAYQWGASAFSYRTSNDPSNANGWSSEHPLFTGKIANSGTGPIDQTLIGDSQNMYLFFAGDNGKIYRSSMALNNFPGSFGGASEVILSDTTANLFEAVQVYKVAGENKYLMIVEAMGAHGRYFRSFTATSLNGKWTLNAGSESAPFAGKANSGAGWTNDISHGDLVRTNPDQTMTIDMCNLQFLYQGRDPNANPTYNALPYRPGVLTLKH
substance,measurement,value
PoAbf62A (Penicillium oxalicum 114-2),Km,1.36 ± 0.12 mM
same,kcat,0.27 ± 0.01 s⁻¹
